Results as given in IntAct's records for PubMed 18628306.

B1: Mitochondrial chaperone BCS1 (Homo sapiens), Q9Y276 (parent)
chain: MPLSDFILALKDNPYFGAGFGLVGVGTALALARKGVQLGLVAFRRHYMITLEVPARDRSYAWLLSWLTRHSTRTQHLSVETSYLQHESGRISTKFEFVPSPGNHFIWYRGKWIRVERSREMQMIDLQTGTPWESVTFTALGTDRKVFFNILEEARELALQQEEGKTVMYTAVGSEWRPFGYPRRRRPLNSVVLQQGLADRIVRDVQEFIDNPKWYTDRGIPYRRGYLLYGPPGCGKSSFITALAGELEHSICLLSLTDSSLSDDRLNHLLSVAPQQSLVLLEDVDAAFLSRDLAVENPVKYQGLGRLTFSGLLNALDGVASTEARIVFMTTNHVDRLDPALIRPGRVDLKEYVGYCSHWQLTQMFQRFYPGQAPSLAENFAEHVLRATNQISPAQVQGYFMLYKNDPVGAIHNAESLRR

Variants of: B1
Details: with letm1_human LETM1, O95202
Chain of letm1_human LETM1, O95202 (O95202 whole entry): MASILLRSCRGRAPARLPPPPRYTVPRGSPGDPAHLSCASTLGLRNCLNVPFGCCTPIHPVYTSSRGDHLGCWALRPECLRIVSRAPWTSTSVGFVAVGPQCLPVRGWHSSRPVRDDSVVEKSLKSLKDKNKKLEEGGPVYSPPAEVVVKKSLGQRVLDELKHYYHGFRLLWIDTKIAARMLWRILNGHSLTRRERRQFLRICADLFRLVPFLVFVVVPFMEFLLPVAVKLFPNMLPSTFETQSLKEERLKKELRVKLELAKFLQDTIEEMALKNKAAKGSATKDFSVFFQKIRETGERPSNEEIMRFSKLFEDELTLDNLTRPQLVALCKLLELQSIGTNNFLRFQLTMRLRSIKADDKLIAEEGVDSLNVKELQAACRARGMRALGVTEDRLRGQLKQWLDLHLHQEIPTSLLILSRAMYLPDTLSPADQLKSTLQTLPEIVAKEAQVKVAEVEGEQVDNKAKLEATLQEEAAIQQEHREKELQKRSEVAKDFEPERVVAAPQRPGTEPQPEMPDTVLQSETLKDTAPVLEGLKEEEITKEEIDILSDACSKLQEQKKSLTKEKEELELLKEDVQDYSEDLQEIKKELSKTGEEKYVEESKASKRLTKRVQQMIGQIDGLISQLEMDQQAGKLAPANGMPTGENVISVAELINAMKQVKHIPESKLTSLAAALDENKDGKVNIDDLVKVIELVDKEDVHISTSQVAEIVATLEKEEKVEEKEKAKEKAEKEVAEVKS

Variant | effect of a mutation on the interaction
MPLSDFILALKDNPYFGAGFGLVGVGTALALARKGVQLGLVAFRRHYMITLEVPARDRSYAWLLSWLTRHSTRTQHLSVETSYLQHESGRISTKFEFVPSPGNHFIWYRGKWIRVERSREMQMIDLQTGTPWESVTFTALGTDRKVFFNILEEAPELALQQEEGKTVMYTAVGSEWRPFGYPRRRRPLNSVVLQQGLADRIVRDVQEFIDNPKWYTDRGIPYRRGYLLYGPPGCGKSSFITALAGELEHSICLLSLTDSSLSDDRLNHLLSVAPQQSLVLLEDVDAAFLSRDLAVENPVKYQGLGRLTFSGLLNALDGVASTEARIVFMTTNHVDRLDPALIRPGRVDLKEYVGYCSHWQLTQMFQRFYPGQAPSLAENFAEHVLRATNQISPAQVQGYFMLYKNDPVGAIHNAESLRR [R155P] | disrupting interaction
